The nature of this data set: amyloid nucleation score (Sup35N fusion, yeast selection) (log enrichment); library NNK2; higher = more nucleation; inactive = no reads after selection. The method, boiled down:
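For the nucleation score, DiMSum gave the log enrichment of output over input reads, centred on the mode score of non-aggregating sequences. Psi-negative yeast expressing Sup35N fused to peptides of 20 random codons were induced with 100 μM copper sulfate for 24 hours and grown 7 days at 30°C on medium lacking adenine and uracil. Input and output plasmid inserts were Illumina-sequenced, and sequences with under 100 input reads were excluded.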

± gives the uncertainty stated by the source.

Consider YSGKCMEDVRGQMVGGLELV, for which the amyloid nucleation score was 0.405 ± 0.22.

Substance IFDRNSYFKEHFVMIGLEGR had an amyloid nucleation score of 0.228 ± 1.

Regarding GSPLLVNDQSDGMYTSEISF, the amyloid nucleation score was -1.32 ± 1.1.

The substance AHEYEPNFFRLCYKVRLWNA displayed an amyloid nucleation score of -0.244 ± 0.22.

The substance LLLIADYMSLVCCRAGVRDV yielded an amyloid nucleation score of 0.215 ± 0.42.

KVMIVNRVIYTNRFNQGLTM: the amyloid nucleation score was 7.705 ± 0.051.

The substance KAANVAEDSR registered an amyloid nucleation score of 0.978 ± 0.47.

As for NRTTSVWG, the amyloid nucleation score was -0.889 ± 1.

For the substance ESLWMRTLMNVHYSDFRVTV, the amyloid nucleation score was -0.174 ± 0.22.

Turning to VGHSIEALELTPIVVRYTYL, the amyloid nucleation score was -0.341 ± 0.45.

Consider SWRIDNVGSRWSTMVCC, for which the amyloid nucleation score came to 6.09 ± 0.063.

The substance HRWVVWEYTGLAFYLAALEY had an amyloid nucleation score of -0.469 ± 0.36.

Turning to TNTSFQRCGLWLTMGYGRYH, the amyloid nucleation score was -0.286 ± 0.3.

The substance RKATQIPMSVSMER showed an amyloid nucleation score of 1.45 ± 0.4.

In turn, RYGRDGDRIIYNVCDFFFSG gave an amyloid nucleation score of 6.475 ± 0.047.

Regarding DDFNERSSLHVVYDRF, the amyloid nucleation score was -0.901 ± 1.

For FSSLRILTERENFHLVSGVH, the amyloid nucleation score was -1 ± 0.78.

CNWGRTFCRRVSVPVRRSDL returned an amyloid nucleation score of -0.074 ± 1.1.

The substance NRIFGTHLTFSGYS displayed an amyloid nucleation score of -0.466 ± 0.5.

Consider LQVAARHHL, for which the amyloid nucleation score entry is “inactive”.

MLVRIYLYRKRSYMVRSALM returned an amyloid nucleation score of 1.52 ± 0.12.

SFSCNNSLDYKGNFS showed an amyloid nucleation score of 1.48 ± 0.18.

Take EDKNLVWLLCQGEM: the amyloid nucleation score amounted to 4.43 ± 0.058.

As to IPRFRLYANCRMFNRV, the amyloid nucleation score turned out to be 0.056 ± 0.39.

VSDRLTMFKSVRSVWMCWGQ: the amyloid nucleation score was -0.146 ± 0.61.

ICVMSQCTQMYRMKICGSLQ gave an amyloid nucleation score of 0.568 ± 0.29.

Consider EAFNTSCLVFLRNDWYWSGF, for which the amyloid nucleation score result was “inactive”.

In the case of FEYNRF, the amyloid nucleation score was 0.691 ± 0.8.

With VAEVKRLHIYWRAPSFRSAN, the amyloid nucleation score is -0.596 ± 0.79.

As for RASMVDF, the amyloid nucleation score stood at 0.108 ± 0.65.

VVYRYRVRHCL: the amyloid nucleation score is 0.725 ± 0.27.

On to ETMIHTPQELYVMYSPLTQQ, for which the amyloid nucleation score is 6.263 ± 0.051.

In turn, SHFADSKVHVWSMSQLATCC gave an amyloid nucleation score of 0.22 ± 0.29.

KVSYMFLVTLSYGSWFPSSM had an amyloid nucleation score of -0.545 ± 0.45.

Turning to WHSDSQTRRSSLSLLVCQID, the amyloid nucleation score worked out at 0.935 ± 0.66.

In turn, LCWSYCRVKCGHMFVGVRGS yielded an amyloid nucleation score of 0.58 ± 0.56.

Consider SGDLMYSGRTSPMPAAQKFV, for which the amyloid nucleation score was -0.393 ± 1.1.

YNGLMNISIATMC returned an amyloid nucleation score of -1.17 ± 0.74.

CHRKWRYLMEASHRLSHSSW: the amyloid nucleation score result was “inactive”.

The substance CNIVNFMWAGENFR came in with an amyloid nucleation score of 5.48 ± 0.086.

In turn, KGRYSGEGEIAFLQRVVGSG displayed an amyloid nucleation score of 0.434 ± 0.41.

Substance YGFGRHKNGAAMPTMYFAMS displayed an amyloid nucleation score of -0.014 ± 0.41.

FIEHT yielded an amyloid nucleation score of -0.716 ± 0.45.

In turn, FKFYSRSAYSHHRFSIYCDR gave an amyloid nucleation score of -1.22 ± 1.1.

Regarding VDIEDGLG, the amyloid nucleation score was found to be 0.13 ± 0.22.

For the substance MTRVSQFVVVP, the amyloid nucleation score stood at 1.69 ± 0.13.

As for KSEKTHRIAMLNMSLVSYMR, the amyloid nucleation score turned out to be 3.97 ± 0.053.

Regarding LSRSDAVRAFFRIMVLWKVV, the amyloid nucleation score is -0.32 ± 0.63.

LITINLSV yielded an amyloid nucleation score of 8.427 ± 0.049.

For TDMWPVYANRVFYNMSWSRP, the amyloid nucleation score entry is “inactive”.

As for YYSPYN, the amyloid nucleation score result is “inactive”.

In turn, DDGMCRRYCLGRKYTMGIEL had an amyloid nucleation score of 1.78 ± 0.14.

Turning to GSYSWSELSCMLFLFVGVSR, the amyloid nucleation score came to 0.411 ± 0.53.

Substance MLVLSSFNCRLFKINRLR registered an amyloid nucleation score of -0.268 ± 0.45.

FLMYFVNR registered an amyloid nucleation score of 2.83 ± 0.055.

Consider NILRATTFCVDHLYSSFFCT, for which the amyloid nucleation score was 6.74 ± 0.068.

VGVFNFAGTTTSVGVNVSYT had an amyloid nucleation score of 2.78 ± 0.1.

FSPVSPSSGKAHGIGLVLLV returned an amyloid nucleation score of 0.083 ± 0.41.

As for TNVINRCLSPCFGRSLFNIV, the amyloid nucleation score was -0.805 ± 1.1.

LEAISCKWYTLYVVYSCNSW came in with an amyloid nucleation score of -0.877 ± 1.

ASLLSGFNFKSVRHGLRDLG gave an amyloid nucleation score of 0.568 ± 0.24.

Regarding GTTWRRINECCSRANKMAPV, the amyloid nucleation score was 0.029 ± 0.35.

As to SVKNR, the amyloid nucleation score was 3.51 ± 0.049.

Turning to AQTSWNILFAKS, the amyloid nucleation score is -0.501 ± 0.64.

NSRLRRVYAGSARGAWTYRR came in with an amyloid nucleation score of 1.14 ± 0.38.

SIFVTYSLRTYINYK showed an amyloid nucleation score of 5.95 ± 0.062.

In the case of GNYHFCRERGRVACW, the amyloid nucleation score was -0.378 ± 1.

Substance ALMDCACFVYSRD returned an amyloid nucleation score of -0.199 ± 1.1.

GFQWLDAYLLGSFWMRMSTC registered an amyloid nucleation score of 0.516 ± 0.81.

On to AAFVAYLAYFLMFSSCFCIY, for which the amyloid nucleation score result was “inactive”.

As for CNGLAQKIILSTRRLLLVPG, the amyloid nucleation score came out at 0.537 ± 0.34.

As to SLYLSWYDIFLMYGCWNVVR, the amyloid nucleation score stood at 0.638 ± 0.37.

On to SCYLVYEFLLTGVSWWQSRL, for which the amyloid nucleation score worked out at 0.794 ± 0.48.

GSSVDGADMIGTLK showed an amyloid nucleation score of 1.46 ± 0.28.

TETNRDWRLGDDW had an amyloid nucleation score of 5.293 ± 0.047.

Take VVILS: the amyloid nucleation score turned out to be 1.28 ± 0.29.

For NCYNMVYNCVPSEKAVKTCR, the amyloid nucleation score worked out at 0.264 ± 0.32.

PIMCKGNLTDFTFYCFCKFD: the amyloid nucleation score is 6.6 ± 0.067.

As for FQDWCHREYYLRLREVSLGG, the amyloid nucleation score result is “inactive”.

Substance WQRRIGKFCDKQWSFQMMVH had an amyloid nucleation score of -0.021 ± 0.63.

In turn, EVADSRKVSSATWSISSNQR came in with an amyloid nucleation score of 1.41 ± 0.4.

FAMRTSKKVSRTTAGGTDPF: the amyloid nucleation score is -0.696 ± 0.54.

GNVWILIYNV had an amyloid nucleation score of 6.164 ± 0.057.

With WVGAVKFFRSVKRQMSIYLE, the amyloid nucleation score entry was “inactive”.

In the case of TATGTIECMVYPLTFSSLSP, the amyloid nucleation score is -0.1 ± 1.

Take SNLVKHRQV: the amyloid nucleation score was 0.745 ± 0.46.

For ELGHDYYSCCGFSAREYMEH, the amyloid nucleation score turned out to be 4.56 ± 0.065.

IRSSSSGNQSQVFSPRDNPP came in with an amyloid nucleation score of -0.381 ± 0.31.

Take LRIRYFSFDIIVLEGYIRSA: the amyloid nucleation score was -0.205 ± 0.29.

Consider RYRSTLQYISVMGLDNT, for which the amyloid nucleation score is -0.608 ± 0.54.

Substance PGAADRTVRYGSRRPPD returned an amyloid nucleation score of -0.003 ± 0.41.

For the substance TGTFSAKLVDTPEGYYLLSV, the amyloid nucleation score is -1.01 ± 0.41.

Take GNSLNSYLSE: the amyloid nucleation score was -0.346 ± 0.42.

As to LRNRMAERDLYLYAICSAGL, the amyloid nucleation score was 0.331 ± 0.55.

For LSRFFFNRAPRKVTGLSVRY, the amyloid nucleation score was 0.96 ± 0.21.

With TGCRVGHCIYVYVSEVSSNP, the amyloid nucleation score came to 0.903 ± 0.34.

As for ASNMIV, the amyloid nucleation score is -0.563 ± 0.33.

Substance NSSWSAPSLCLCM displayed an amyloid nucleation score of 9.527 ± 0.045.

On to NYIESFMHSQGCNPFQDSFM, for which the amyloid nucleation score is 3 ± 0.12.

As for IRVNMSVTITRGWICHRLCK, the amyloid nucleation score came to 0.293 ± 0.27.

YVCVYTDF: the amyloid nucleation score was -1.38 ± 0.55.

QYDIVPNVSGNYPNGIFKDR: the amyloid nucleation score result is “inactive”.

For FYKGWMVLALNDNSVVSINV, the amyloid nucleation score amounted to 3.42 ± 0.085.

Regarding NPYIINLFCYKIVRLGAIFT, the amyloid nucleation score turned out to be 4.14 ± 0.068.

In the case of LKLYPGIFIICVRTMDFVFW, the amyloid nucleation score result is “inactive”.

DHLGWHEVTVSLELSFFYRV had an amyloid nucleation score of 4.83 ± 0.11.

Substance VSHILINVSRGLRGS had an amyloid nucleation score of -0.261 ± 0.8.

With NFCLARRYTYIKSPFCVSGK, the amyloid nucleation score is 0 ± 0.56.

With EYCACTFDWWGYQGCCD, the amyloid nucleation score is -1.04 ± 0.63.

On to DDSTFKSRFVLGIPAICLGS, for which the amyloid nucleation score is -1.37 ± 0.4.

Turning to RILIINLSPNEYMIGLH, the amyloid nucleation score was found to be 4.3 ± 0.1.

In turn, GIISRMGAVSLNLMLQKRAS yielded an amyloid nucleation score of 0.8 ± 0.46.

In turn, AGSQVVVMVIGVSTWAVVDG registered an amyloid nucleation score of 3.01 ± 0.14.

NWGFISVLVALPWVWGLRPG displayed an amyloid nucleation score of -0.387 ± 0.42.

Consider MPQSYFLGSRIKRFKKSRLV, for which the amyloid nucleation score was determined as 0.496 ± 0.37.

Take TCICEVHTPTSSMISPSMSF: the amyloid nucleation score was -1.51 ± 0.75.

For TFNISLAWCEFFSHIFLLN, the amyloid nucleation score entry was “inactive”.

Turning to WLLGMYVIRGRQSYNSKDVR, the amyloid nucleation score came to 3.38 ± 0.054.

For YCPPFLHNTWAYAKRTGRGS, the amyloid nucleation score was -0.137 ± 0.61.

In turn, FCDFY came in with an amyloid nucleation score of -1.2 ± 0.41.

As for MYYYSSCKNVQKSHPSSRMQ, the amyloid nucleation score result was “inactive”.

As for RRAVLVSPGVVNQGISKHQG, the amyloid nucleation score was 0.632 ± 0.25.

For YFSSQLDLRRIMLLLSRYV, the amyloid nucleation score was 0.721 ± 0.54.

For VLSLSVDFSCKRSCIMDTQV, the amyloid nucleation score is 3.95 ± 0.087.

With IESRL, the amyloid nucleation score result was “inactive”.

Consider QIFLIKIGAFVLLLTVQ, for which the amyloid nucleation score is -1.34 ± 0.54.

Substance YMDMWGR displayed an amyloid nucleation score of -0.81 ± 0.41.

FYRSGEHRRSCRVRVVYGEL showed an amyloid nucleation score of 0.397 ± 0.64.

Regarding ILLYNCCCEGWACKSWLGSH, the amyloid nucleation score entry is “inactive”.

Turning to RFSGASNLVESPIKWIVGAH, the amyloid nucleation score was 4.96 ± 0.06.

The substance CSCQAVLLLASSRPAIKVRC gave an amyloid nucleation score of 1.86 ± 0.31.

Take RVFSLDWVIERMSVEFHSWG: the amyloid nucleation score entry is “inactive”.

Substance IKSRICISSYNNDMCGRFVL came in with an amyloid nucleation score of -1.86 ± 0.62.

KIVGCGHSRMLIMTWC displayed an amyloid nucleation score of 0.733 ± 0.56.

IYCLATVMDMICVYGWICAW came in with an amyloid nucleation score of 0.049 ± 0.34.

For CSFSYGMYSK, the amyloid nucleation score was found to be 0.401 ± 0.23.

PNVAIYIPTGYGLTVTPPAS yielded an amyloid nucleation score of -1.02 ± 0.76.

As to NIWRRSSSV, the amyloid nucleation score entry is “inactive”.

For the origin of these results see the supplement of paper PMC12042874.
